Assay results published in publication PMC6540902, “A simple, robust, universal assay for real-time enzyme monitoring by signalling changes in nucleoside phosphate anion concentration using a europium(III)-based anion receptor” (Chemical Science, 2019).

Substrate: CC(C)C[C@H](NC(=O)[C@H](CO)NC(=O)[C@H](C)NC(=O)[C@H](CCCNC(=N)N)NC(=O)[C@H](CCCNC(=N)N)NC(=O)[C@@H](N)CC(C)C)C(=O)NCC(=O)O
Experiment: Michaelis-Menten substrate titration (Km) by real-time Eu(III) luminescence
Format: biochemical, Homo sapiens
Conditions: ATP, Mg2+

B1: Aurora A kinase (AurA) (Homo sapiens) (protein)
chain: MDRSKENCISGPVKATAPVGGPKRVLVTQQFPCQNPLPVNSGQAQRVLCPSNSSQRIPLQAQKLVSSHKPVQNQKQKQLQATSVPHPVSRPLNNTQKSKQPLPSAPENNPEEELASKQKNEESKKRQWALEDFEIGRPLGKGKFGNVYLAREKQSKFILALKVLFKAQLEKAGVEHQLRREVEIQSHLRHPNILRLYGYFHDATRVYLILEYAPLGTVYRELQKLSKFDEQRTATYITELANALSYCHSKRVIHRDIKPENLLLGSAGELKIADFGWSVHAPSSRRTTLCGTLDYLPPEMIEGRMHDEKVDLWSLGVLCYEFLVGKPPFEANTYQETYKRISRVEFTFPDFVTEGARDLISRLLKHNPSQRPMLREVLEHPWITANSSKPSNCQNKESASKQS
- Km: 176 ± 29 µM
